From US8394765B2, “Methods of treating obesity with two different anti-obesity agents” (Amylin Pharmaceuticals LLC, priority 2004, dated 2013)

How the values were obtained:
[1] = Pair-feeding experiment in DIO rats, amylin+leptin (Example 2); format: in vivo, rat; details: two weeks, leptin 500 μg/kg/day with intake restricted to amount consumed by amylin-treated group, FIG. 7
Description: Amylin is known to have an anorectic effect on a recipient. In order to examine the effect of amylin+leptin in the context of an anorectic effect of amylin, a pair-feeding experiment was performed. DIO rats and drug treatment groups were established as described above. DIO rats in the vehicle, amylin, and amylin+leptin treatment groups had ad libitum access to food, while intake in the pair-fed leptin treatment was restricted to the amount consumed by the amylin-treated group. Body weight was recorded daily for the two weeks of treatment. […] The combination of amylin+leptin results in a decrease of about 12% in body weight relative to vehicle control.

[2] = In-bred DIO (Levin) rats, amylin and leptin, body weight and NMR body composition (Example 2); format: in vivo, rat; details: two weeks, leptin 500 μg/kg/day, amylin 100 μg/kg/day, FIG. 6A
Description: They were housed individually in shoebox cages at 22 C in a 12/12-hour light dark cycle.
Body composition was measured prior to and after drug treatment using NMR (Echo Medical Systems, Houston, Tex.). For body composition measurements, rats were briefly placed (˜1 min) in a well-ventilated plexiglass tube that was then inserted into a specialized rodent NMR machine. Rats were scanned prior to pump implantation and on the final day of the experiment. This enabled the calculation of changes in actual grams of fat and dry lean tissue (e.g., grams of body fat after treatment−grams of body fat at baseline=change in grams of body fat) and changes in % body composition for fat and dry lean tissue (e.g., % body fat after treatment−% body fat at baseline=change in % body fat).

[3] = Leptin effect on body weight in normal HSD versus DIO prone rats (Example 3); format: in vivo, rat; details: FIG. 9
Description: Normal, lean HSD rats were divided into two treatment groups. Each group was implanted with subcutaneous osmotic mini-pumps (DURECT Corp., Cupertino, Calif.) designed to deliver either vehicle or leptin (500 μg/kg/day) for a 14 day period and body weight was recorded weekly. […] The DIO prone animals described herein appear resistant to the weight reducing effect of leptin.

[4] = DIO rat 14-day mini-pump study of leptin and amylin: food intake, body weight, body composition (Example 1); format: in vivo; details: DIO rats, 14 days s.c. osmotic mini-pump, leptin 500 μg/kg/day, amylin 100 μg/kg/day
From the text: Diet-induced obesity (DIO) in the in the Sprague-Dawley rat is a valuable model for the study of obesity and regulation of energy homeostasis. These rats were developed from a line of (Crl:CD®(SD)BR) rats that are prone to become obese on a diet relatively high in fat and energy. See, for example, Levin (1994) Am. J. Physiol. 267:R527-R535, Levin et al. (1997) Am. J. Physiol. 273:R725-R730. DIO male rats were obtained from Charles River Laboratories, Inc. (Wilmington, Mass.). The rats were housed individually in shoebox cages at 22° C. in a 12/12-hour light dark cycle. Rats were maintained ad-libitum on a moderately high fat diet (32% kcal from fat; Research Diets D1226B) for 6-7 weeks prior to drug treatment. At the end of the fattening period (prior to drug administration), the animals typically achieve a mean body weight of about 500 g.
The DIO animals were divided into four treatment groups. Each group was implanted with subcutaneous osmotic mini-pumps (DURECT Corp., Cupertino, Calif.) designed to deliver vehicle, leptin (500 μg/kg/day), amylin (100 μg/kg/day) or leptin (500 μg/kg/day)+amylin (100 μg/kg/day) for a 14 day period. […] Food intake and body weight were recorded daily. Body composition was measured prior to and after drug treatment using NMR (Echo Medical Systems, Houston, Tex.). […]

[5] = 24-week randomized, double-blind, active-drug-controlled study of pramlintide and metreleptin in overweight and obese subjects (Example 8); format: in vivo, human
Description: To evaluate inter alia the safety, tolerability and effect of the combination of an amylin agonist (pramlintide) and a leptin (metreleptin) on changes in body weight, a 24-week, randomized, double-blind, active-drug-controlled, multicenter study was conducted under USFDA approved protocols. Secondary objectives of the study were the determination of the pharmacokinetics of pramlintide and leptin, waist circumference, rate of change in body weight, and patient reported outcomes including for example without limitation perception of well-being related to weight change and mood. The study enrolled overweight and obese subjects with defined BMI ([…]), with enrollment statistics as provided in Table 2. […] Subjects treated with pramlintide/metreleptin lost an average of 25 pounds from the start of the 24-week study compared with an average of 17 pounds for subjects treated with pramlintide alone.
In an initial lead-in phase, all subjects received dietary instructions and treatment with pramlintide at 180 mcg BID for two weeks, followed by pramlintide at 360 mcg BID for two weeks. Subjects who completed the 4-week lead-in period and who lost 2-8 percent body weight during this period were eligible to continue the study. The term “enrolled” (Table 2) refers to subjects (N=177) receiving at least one dose of pramlintide during the lead-in period. The term “non-randomized” refers to subjects not continuing in the study past the lead-in period. The term “evaluable” refers to subjects who completed Visit 9 (Week 16) study procedures and adequately complied with the study protocol.
After the 4-week lead-in period, for the remaining 20 weeks of the study the subjects were randomized in a 2:2:1 ratio to one of three groups with BID treatment of 1) pramlintide 360 mcg/metreleptin 5 mg (“Leptin+Pramlintide”); 2) pramlintide 360 mcg/placebo (“Pramlintide”); or 3) metreleptin 5 mg/placebo (“Leptin”).

[6] = 4-week pramlintide lead-in, arm of later randomization

B1: murine leptin (protein, UniProt P41160 22-167, looked up)
Leptin: VPIQKVQDDTKTLIKTIVTRINDISHTQSVSAKQRVTGLDFIPGLHPILSLSKMDQTLAVYQQVLTSLPSQNVLQIANDLENLRDLLHLLAFSKSCSLPQTSGLQKPESLDGVLEASLYSTEVVALSRLQGSLQDILQQLDVSPEC
[1]
  decrease in body weight relative to vehicle control, pair-fed: ~6%
[2]
  vehicle-corrected decrease in percent body weight: 2%
[3]; DIO prone rats, same leptin dose
  body weight: ineffective
[3]; normal, lean HSD rats, leptin 500 μg/kg/day s.c. mini-pump, 14 days
  body weight: significant and sustained reduction in body weight
[4]; FIG. 1
  cumulative food intake: no effect
[4]; FIG. 2
  total changes in body weight: no effect
[5]; 0-12 weeks, evaluable population, FIG. 24
  rate of change in body weight, early rate: −0.19±0.05 kg/week
[5]; 4-week lead-in period in which all subjects received pramlintide (180 then 360 mcg BID), arm of later randomization
  Mean Change in Body Weight: -3.97 kg
[5]; [6]
  % Weight Loss During Lead-in <5% (share of subjects): 78%
  % Weight Loss During Lead-in ≧5% (share of subjects): 22%
[5]; 12-20 weeks, evaluable population, FIG. 24
  rate of change in body weight, late rate: −0.01±0.08 kg/week
